Test results taken from patent US20150353645A1.
Blank lines part the entries; values can stand above or below the binder they belong to.

Key:
[1] = target: MUC1 peptide-biotin (cat#353951, American Peptide Company); assay: ELISA at 2 ug/ml mAb, MUC1 peptide-biotin on NeutrAvidin; PBS background 0.08
[2] = target: MUC1 peptide-biotin (cat#353951, American Peptide Company); assay: ELISA at 2 ug/ml mAb (IgM), MUC1 peptide-biotin on NeutrAvidin; PBS background 0.12

- ELISA signal (unit not given) [1]: 0.08
B1: human anti-GD2 monoclonal antibody 31F9 (antibody, human IgG1, V domains shown)
VH: QVQLLESGAEVKKPGASVKVSCEASGYTFTSSDINWVRQATGQGLEWMGWMNPNSGNTGYAQKFQGRVTMTRNTSISTAYMELSSLRSEDTAVYYCARERPRRRGGGFDIWGQGTMVTVSS
VL: DIRMTQSPSSLSASVGDRVTITCRASQGISNYLAWYQQKPGKVPKFLIYAASTLQSGVPSRFSGSGSGTDFTLTISSLQPEDVATYYCQKYNSAPWTFGQGTKVEIK

- ELISA signal (unit not given) [2]: 0.09
B2: human anti-GD2 monoclonal antibody 2E12 (antibody, human IgM, V domains shown)
VH: QVQLLESGAEVKKPGASVKVSCKASGYTFTSYAMHWVRQAPGQRLEWMGWINAGNGNTIYSQKFQARVTITRDTSASTAYMELSSLRSEDTAVYYCARWVGGVASYFDYWGQGTLVTVSS
VL: EIVLTQSPLSLSVTPGEPASISCRSSQSLLHRNGYNYFDWYLQQPGQSPQLLIYLGSNRASGVPDRFSGSGSGTDFTLKISRVEAEDVGVYYCMQALQTPYTFGQGTKLEIK
